Experimental data published in patent publication US20170224836A1 (Novartis, published 2017).
Residue numbers refer to the chain shown, from its start. Read-outs that look alike come from different tables or passages of the source.

T1: human CDH6 on cells (human, UniProt P55285 54-790)
T1 sequence: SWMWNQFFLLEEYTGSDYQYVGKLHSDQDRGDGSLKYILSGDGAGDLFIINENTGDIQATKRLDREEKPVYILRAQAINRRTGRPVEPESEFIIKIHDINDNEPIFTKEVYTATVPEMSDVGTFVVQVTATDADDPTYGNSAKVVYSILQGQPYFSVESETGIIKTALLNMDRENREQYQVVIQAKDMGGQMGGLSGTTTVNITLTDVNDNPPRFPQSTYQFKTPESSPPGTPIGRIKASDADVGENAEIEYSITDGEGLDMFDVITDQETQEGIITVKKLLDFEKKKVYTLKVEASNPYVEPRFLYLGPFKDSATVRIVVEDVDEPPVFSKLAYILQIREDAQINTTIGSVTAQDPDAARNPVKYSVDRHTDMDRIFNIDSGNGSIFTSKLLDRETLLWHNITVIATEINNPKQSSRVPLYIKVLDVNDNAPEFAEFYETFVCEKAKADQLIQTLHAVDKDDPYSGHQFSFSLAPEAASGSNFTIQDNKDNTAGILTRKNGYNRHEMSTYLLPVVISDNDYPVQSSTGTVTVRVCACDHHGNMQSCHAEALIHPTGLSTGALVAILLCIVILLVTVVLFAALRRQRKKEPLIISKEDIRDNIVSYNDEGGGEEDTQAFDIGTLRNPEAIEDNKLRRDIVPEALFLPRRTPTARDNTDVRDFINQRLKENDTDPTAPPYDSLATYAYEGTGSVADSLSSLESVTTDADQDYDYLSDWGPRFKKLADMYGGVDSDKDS

T2: rat CDH6 on cells (rat, UniProt P55280 54-789)
T2 sequence (looked up): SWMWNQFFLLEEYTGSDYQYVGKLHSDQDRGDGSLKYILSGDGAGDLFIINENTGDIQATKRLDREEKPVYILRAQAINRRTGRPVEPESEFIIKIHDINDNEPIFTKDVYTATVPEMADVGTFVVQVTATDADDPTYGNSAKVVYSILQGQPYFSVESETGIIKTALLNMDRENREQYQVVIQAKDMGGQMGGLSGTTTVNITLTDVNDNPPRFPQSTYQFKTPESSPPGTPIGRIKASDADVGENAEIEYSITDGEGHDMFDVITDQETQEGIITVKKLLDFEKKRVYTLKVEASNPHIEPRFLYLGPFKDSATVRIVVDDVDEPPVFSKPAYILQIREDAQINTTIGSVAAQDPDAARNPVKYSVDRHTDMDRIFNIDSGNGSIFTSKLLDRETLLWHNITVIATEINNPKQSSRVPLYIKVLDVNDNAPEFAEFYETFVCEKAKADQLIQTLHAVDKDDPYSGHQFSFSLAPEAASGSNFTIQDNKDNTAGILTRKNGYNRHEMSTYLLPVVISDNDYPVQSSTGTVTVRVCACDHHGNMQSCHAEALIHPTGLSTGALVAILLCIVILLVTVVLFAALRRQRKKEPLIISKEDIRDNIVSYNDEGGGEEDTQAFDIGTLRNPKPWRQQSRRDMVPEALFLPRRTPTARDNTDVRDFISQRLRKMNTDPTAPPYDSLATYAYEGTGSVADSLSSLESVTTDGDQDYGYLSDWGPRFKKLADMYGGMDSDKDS

T3: mouse CDH6 on cells (mouse, UniProt P97326 54-790)
T3 sequence (looked up): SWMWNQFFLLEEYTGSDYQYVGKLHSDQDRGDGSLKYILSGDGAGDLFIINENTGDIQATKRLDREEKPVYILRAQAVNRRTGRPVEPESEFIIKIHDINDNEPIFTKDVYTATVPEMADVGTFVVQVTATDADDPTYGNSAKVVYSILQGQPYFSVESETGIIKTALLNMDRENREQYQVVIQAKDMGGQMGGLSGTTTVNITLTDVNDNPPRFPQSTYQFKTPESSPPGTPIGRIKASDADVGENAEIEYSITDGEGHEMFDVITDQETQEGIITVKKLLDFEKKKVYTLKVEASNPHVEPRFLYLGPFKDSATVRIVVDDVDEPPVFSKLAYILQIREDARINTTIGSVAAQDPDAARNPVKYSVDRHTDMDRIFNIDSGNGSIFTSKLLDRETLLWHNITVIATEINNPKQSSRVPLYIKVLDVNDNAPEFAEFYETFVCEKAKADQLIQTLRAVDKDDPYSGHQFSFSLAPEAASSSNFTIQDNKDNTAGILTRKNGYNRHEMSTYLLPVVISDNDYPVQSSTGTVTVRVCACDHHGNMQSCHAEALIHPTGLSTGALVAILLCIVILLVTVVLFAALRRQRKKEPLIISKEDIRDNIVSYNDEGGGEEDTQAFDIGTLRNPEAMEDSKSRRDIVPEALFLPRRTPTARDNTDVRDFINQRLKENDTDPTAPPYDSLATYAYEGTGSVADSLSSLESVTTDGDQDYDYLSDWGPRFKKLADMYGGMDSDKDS

T4: cynomolgus CDH6 on cells (cynomolgus, UniProt A0A2K5TW62 54-790)
T4 sequence: T1 sequence with Y300H, H457R, A707G

T5: hCDH6aa54-615 APPavi (human, UniProt P55285 54-615)
T5 sequence: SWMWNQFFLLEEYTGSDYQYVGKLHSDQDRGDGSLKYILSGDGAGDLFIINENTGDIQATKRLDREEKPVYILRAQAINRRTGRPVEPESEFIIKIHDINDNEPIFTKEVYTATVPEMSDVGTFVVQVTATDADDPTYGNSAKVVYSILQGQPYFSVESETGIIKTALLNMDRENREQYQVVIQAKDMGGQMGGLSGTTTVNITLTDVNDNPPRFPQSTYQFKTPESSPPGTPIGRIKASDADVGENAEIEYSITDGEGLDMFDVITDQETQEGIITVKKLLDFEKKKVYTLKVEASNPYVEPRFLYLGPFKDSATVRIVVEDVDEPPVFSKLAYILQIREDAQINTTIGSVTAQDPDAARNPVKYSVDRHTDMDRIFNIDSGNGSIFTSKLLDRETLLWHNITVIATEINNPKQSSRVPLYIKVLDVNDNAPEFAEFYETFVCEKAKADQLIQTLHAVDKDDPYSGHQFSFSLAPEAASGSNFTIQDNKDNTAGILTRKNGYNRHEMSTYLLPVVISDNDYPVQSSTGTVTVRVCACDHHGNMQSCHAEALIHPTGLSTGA

B1: NOV0712-sulfo-SPDB-DM4 (antibody, human IgG1, kappa, V domains shown)
VH: QVQLLESGGGLVQPGGSLRLSCAASGFTFSSHGMHWVRQAPGKGLEWVSVISGSGSNTGYADSVKGRFTISRDNSKNTLYLQMNSLRAEDTAVYYCARQWGSYAFDSWGQGTLVTVSS
VL: DIQMTQSPSSLSASVGDRVTITCRASQSISSYLNWYQQKPGKAPKLLIYAVSTLQSGVPSRFSGSGSGTDFTLTISSLQPEDFATYYCQQSGTFPPTTFGQGTKVEIKR
modifications: sulfo-SPDB-DM4 on primary amines, sites not stated
B2: NOV1132 (antibody, human IgG1, lambda, V domains shown)
VH: QVQLQQSGPGLVKPSQTLSLTCAISGDSVSSQSAGWNWIRQSPSRGLEWLGRIYYRSKWYNDYAVSVKSRITINPDTSKNQFSLQLNSVTPEDTAVYYCAREKYTVSFYDFFDYWGQGTLVTVSS
VL: SYELTQPLSVSVALGQTARITCSGDNIGSMTAHWYQQKPGQAPVLVIYDKNERPSGIPERFSGSNSGNTATLTISRAQAGDEADYYCQSWDDSYTSVVFGGGTKLTVLG
B3: NOV0719 (antibody, human IgG1, kappa, V domains shown)
VH: QVQLLESGGGLVQPGGSLRLSCAASGFTFSSHWVHWVRQAPGKGLEWVSVISYMGSSTYYADSVKGRFTISRDNSKNTLYLQMNSLRAEDTAVYYCARGSYDMAFDVWGQGTLVTVSS
VL: DIQMTQSPSSLSASVGDRVTITCRASQSIVSYLNWYQQKPGKAPKLLIYDASSLQSGVPSRFSGSGSGTDFTLTISSLQPEDFATYYCQQSGSHSITFGQGTKVEIKR

Legend:
human CDH6 on cells [1] = biological target: T1, human CDH6 on cells; assay: FACS on OVCAR3 cells, histogram table
human CDH6 on cells [2] = biological target: T1, human CDH6 on cells; assay: FACS on OVCAR8-CDH6+ cells, histogram table
human CDH6 on cells [3] = biological target: T1, human CDH6 on cells; assay: FACS on OVCAR3 cells
rat CDH6 on cells = biological target: T2, rat CDH6 on cells; assay: FACS on CHO-ratCDH6 cells
human CDH6 on cells [4] = biological target: T1, human CDH6 on cells; assay: FACS on CHO-TO-humanCDH6 cells plus tetracycline
mouse CDH6 on cells = biological target: T3, mouse CDH6 on cells; assay: FACS on CHO-mouseCDH6 cells
human CDH6 on cells [5] = biological target: T1, human CDH6 on cells; assay: FACS on OVCAR8-CDH6+ cells, EC50 [M] table
cynomolgus CDH6 on cells = biological target: T4, cynomolgus CDH6 on cells; assay: FACS on CHO-cynoCDH6 cells
hCDH6aa54-615 APPavi [6] = biological target: T5, hCDH6aa54-615 APPavi; assay: SPR binning
hCDH6aa54-615 APPavi [7] = biological target: T5, hCDH6aa54-615 APPavi; assay: SPR binning; remark: listed apart in the source
hCDH6aa54-615 APPavi [8] = biological target: T5, hCDH6aa54-615 APPavi; assay: SPR binning; remark: listed apart in the source
hCDH6aa54-615 APPavi [9] = biological target: T5, hCDH6aa54-615 APPavi; assay: SPR binning; remark: listed apart in the source
hCDH6aa54-615 APPavi [10] = biological target: T5, hCDH6aa54-615 APPavi; assay: SPR binning; remark: listed apart in the source
hCDH6aa54-615 APPavi [11] = biological target: T5, hCDH6aa54-615 APPavi; assay: SPR binning; remark: listed apart in the source
hCDH6aa54-615 APPavi [12] = biological target: T5, hCDH6aa54-615 APPavi; assay: SPR binning; remark: listed apart in the source

| Molecule | Geom. Mean Fluorescence (human CDH6 on cells [1]) | Geom. Mean Fluorescence (human CDH6 on cells [2]) | EC50 (read off the curve) (human CDH6 on cells [3]) [nM] | EC50 (read off the curve) (rat CDH6 on cells) [nM] | EC50 (read off the curve) (human CDH6 on cells [4]) [nM] | EC50 (read off the curve) (mouse CDH6 on cells) [nM] | EC50 (human CDH6 on cells [5]) [nM] | EC50 (read off the curve) (cynomolgus CDH6 on cells) [nM] | response of secondary antibody on primary antibody-CDH6 complex (hCDH6aa54-615 APPavi [6]) | response of secondary antibody on primary antibody-CDH6 complex (hCDH6aa54-615 APPavi [7]) | response of secondary antibody on primary antibody-CDH6 complex (hCDH6aa54-615 APPavi [8]) | response of secondary antibody on primary antibody-CDH6 complex (hCDH6aa54-615 APPavi [9]) | response of secondary antibody on primary antibody-CDH6 complex (hCDH6aa54-615 APPavi [10]) | response of secondary antibody on primary antibody-CDH6 complex (hCDH6aa54-615 APPavi [11]) | response of secondary antibody on primary antibody-CDH6 complex (hCDH6aa54-615 APPavi [12]) |
| --- | --- | --- | --- | --- | --- | --- | --- | --- | --- | --- | --- | --- | --- | --- | --- |
| control IgG-sulfo-SPDB-DM4 (antibody) | 60.4 | 56.5 |  |  |  |  |  |  |  |  |  |  |  |  |  |
| B1 |  |  | ~0.4 | ~0.7 | ~0.5 | ~0.7 | 0.715 | ~0.7 |  |  |  |  |  |  |  |
| B2 |  |  |  |  |  |  |  |  | 14.3 | 33.6 | 39.3 | 23.7 | 1.08 | 17.8 | 17.9 |
| B3 |  |  |  |  |  |  |  |  | 11.1 | -2.36 | 46.9 | 25.4 | 20.7 | 16.1 | 13.5 |
